B1: CaPCNA (natural protein, Candida albicans, UniProt Q5AMN0 1-259, looked up)
chain: MLEGKFEEAALLKKVVEAIKDCVKKCNFNCSEHGITVQAVDDSRVLLVSLLIGQTSFSEYRCDRDVTLGIDLESFSKIIKSANNEDFLTLLAEDSPDQIMAILEEKQKEKISEYSLKLMDIDSEFLQIDDMEYDAVVNMPSSDFAKLVRDLKNLSESLRVVVTKDSVKFTSEGDSGSGSVILKPYTNLKNERESVTISLDDPVDLTFGLKYLNDIVKAATLSDVITIKLADKTPALFEFKMQSGGYLRFYLAPKFDDDE
notes: proliferating cell nuclear antigen (PCNA), Candida albicans; also called C. albicans PCNA; source: E. coli BL21-DE3, purified
B2: 29-mer ubz peptide of CaPolη (607-635) (peptide)
peptide: KTKKCSRCKLSVDDPVEHNDYHIAMDLSN
notes: also called wild-type ubz peptide; WT UBZ peptide; source: synthetic peptide (China peptides Co Ltd, 98% purity)
B3: CaPCNA-90 (P253A, K254A) (natural protein)
chain: MLEGKFEEAALLKKVVEAIKDCVKKCNFNCSEHGITVQAVDDSRVLLVSLLIGQTSFSEYRCDRDVTLGIDLESFSKIIKSANNEDFLTLLAEDSPDQIMAILEEKQKEKISEYSLKLMDIDSEFLQIDDMEYDAVVNMPSSDFAKLVRDLKNLSESLRVVVTKDSVKFTSEGDSGSGSVILKPYTNLKNERESVTISLDDPVDLTFGLKYLNDIVKAATLSDVITIKLADKTPALFEFKMQSGGYLRFYLAAAFDDDE
notes: source: E. coli BL21-DE3, purified
B4: ScPCNA (natural protein, Saccharomyces cerevisiae, UniProt P15873 1-258, looked up)
chain: MLEAKFEEASLFKRIIDGFKDCVQLVNFQCKEDGIIAQAVDDSRVLLVSLEIGVEAFQEYRCDHPVTLGMDLTSLSKILRCGNNTDTLTLIADNTPDSIILLFEDTKKDRIAEYSLKLMDIDADFLKIEELQYDSTLSLPSSEFSKIVRDLSQLSDSINIMITKETIKFVADGDIGSGSVIIKPFVDMEHPETSIKLEMDQPVDLTFGAKYLLDIIKGSSLSDRVGIRLSSEAPALFQFDLKSGFLQFFLAPKFNDEE
notes: proliferating cell nuclear antigen (PCNA), Saccharomyces cerevisiae; also called S. cerevisiae PCNA; source: E. coli BL21-DE3, purified

Assays:
[1] = test system: CaPCNA; assay: ITC binding to CaPCNA; parameters: species or system Candida albicans; settings: 25 °C, pH 7.4, CaPCNA injected, about 10 μM Polη mutant in cell, negatives repeated at various concentrations
Source text: To identify a region of CaPolη involved in PCNA interaction, we generated a deletion construct by inserting a stop codon at amino acid position 513 (K513) of CaPolη. […] The wild-type and truncated CaPolη were purified, and their interaction with CaPCNA was monitored by isothermal calorimetry (ITC) analysis. […] Since CaPolη functionally complements ScPolη and protects the fungal cells from UV-induced DNA damages ([17], [25], [26]), to further strengthen our finding, various Polη orfs were expressed under the constitutive ADH1 promoter in rad30Δ and rad30Δrev3Δ S. cerevisiae strains, and susceptibility to UV irradiation was determined.
To map the precise location of PCNA binding, another deletant CaPolη 1 to 601 aa was constructed that lacks the last 39 residues encompassing the ubz domain but retains Seq-3 and Seq-4 (Fig. 2A). […] To ascertain the function of ubz domain, two D626A and H624A, H628A of CaPolη mutants were generated and their ability to suppress UV sensitivity of Polη-deficient S. cerevisiae strains was examined. […] Similarly, UV-induced mutation rate was estimated by counting the number of canavanine-resistant colonies of various S. cerevisiae strains harboring CaPolη constructs. […] Subsequently, ITC and GST-pull-down assays were carried out to determine the role of ubz in PCNA binding.

[2] = biological target: B2; assay: ITC; PCNA (200 μM, counted as a trimer) in the syringe, Polη (10 μM) or ubz peptide (20 μM) in the cell; 25 injections of 1.5 μl; 25 °C; 20 mM HEPES pH 7.4, 150 mM NaCl; single-site binding model; settings: both partners purified
[3] = biological target: the molecule itself; assay: SEC; about 10 μg of purified CaPCNA and CaPolη (1:1 M ratio) incubated 60 min at room temperature, or CaPCNA alone; Superdex 200 PC3.2/30; 50 mM HEPES pH 7.5, 150 mM NaCl, 10% glycerol; 0.05 ml/min, 4 °C
[4] = biological target: wild-type CaPolη protein (1–640 aa) (Candida albicans); assay: ITC; PCNA (200 μM, counted as a trimer) in the syringe, Polη (10 μM) or ubz peptide (20 μM) in the cell; 25 injections of 1.5 μl; 25 °C; 20 mM HEPES pH 7.4, 150 mM NaCl; single-site binding model
[5] = biological target: B1; assay: as above; settings: both partners purified
[6] = biological target: B3; assay: as above; settings: both partners purified
[7] = biological target: B4; assay: as above; settings: both partners purified
[8] = biological target: T1, ScPolη (Saccharomyces cerevisiae, UniProt Q04049 1-632); assay: as above; settings: both partners purified
T1 construct: DNA polymerase eta (Rad30), Saccharomyces cerevisiae, 632 aa, wild type; also called ScRad30; S. cerevisiae DNA polymerase eta; source: purified
T1 sequence (looked up): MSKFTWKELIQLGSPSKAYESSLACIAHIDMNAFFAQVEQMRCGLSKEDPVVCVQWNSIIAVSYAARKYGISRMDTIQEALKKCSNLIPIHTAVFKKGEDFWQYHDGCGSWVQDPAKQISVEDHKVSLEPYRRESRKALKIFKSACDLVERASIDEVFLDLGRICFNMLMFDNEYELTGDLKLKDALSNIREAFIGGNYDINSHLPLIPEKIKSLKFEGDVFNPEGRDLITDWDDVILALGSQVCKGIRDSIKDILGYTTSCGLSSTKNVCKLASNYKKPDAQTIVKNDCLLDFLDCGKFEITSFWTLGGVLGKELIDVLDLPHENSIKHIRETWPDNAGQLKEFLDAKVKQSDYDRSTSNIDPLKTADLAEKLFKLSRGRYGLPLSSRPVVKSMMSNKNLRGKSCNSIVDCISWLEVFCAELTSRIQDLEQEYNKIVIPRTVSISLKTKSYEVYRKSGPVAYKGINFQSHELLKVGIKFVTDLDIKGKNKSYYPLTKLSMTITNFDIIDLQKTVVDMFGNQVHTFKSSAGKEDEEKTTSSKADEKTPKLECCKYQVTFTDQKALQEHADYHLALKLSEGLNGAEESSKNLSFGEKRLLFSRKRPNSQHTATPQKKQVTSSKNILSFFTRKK

[9] = biological target: T2, ScPCNA (Saccharomyces cerevisiae, UniProt P15873); assay: ITC binding to ScPCNA; settings: 25 °C
T2 construct: made in house; host or cells: E. coli BL21-DE3
T2 sequence (P15873 1-258): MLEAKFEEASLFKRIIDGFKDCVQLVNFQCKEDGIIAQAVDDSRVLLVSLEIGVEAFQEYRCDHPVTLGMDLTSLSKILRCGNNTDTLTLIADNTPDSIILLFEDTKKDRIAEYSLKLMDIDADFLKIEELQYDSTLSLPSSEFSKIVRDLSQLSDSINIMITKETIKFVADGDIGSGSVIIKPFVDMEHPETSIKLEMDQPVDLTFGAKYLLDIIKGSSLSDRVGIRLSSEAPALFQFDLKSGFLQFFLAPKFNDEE
Source text: To understand whether any sequence or structural differences of the ubz domains in these Polηs have an impact on functional differences, we used the solution structure of the ubz domain of human Polη as a template and determined the structure of the ubz domain of both Sc- and Ca-Polηs by computational modeling (Fig. 3A). […] The two cysteines are located on the fingertip made by the two β-strands, and the two histidines are located on the α-helix. […] Next we examined whether the ubz peptide can inhibit the binding of PCNA to Polη. An equimolar mixture of the ubz peptide and PCNA was injected into the calorimetric cell having CaPolη to examine the interference of peptide on the interaction between PCNA and Polη by ITC.
All the purified proteins and purchased peptides were dialyzed overnight against 1 l of a buffer containing 20 mM HEPES (pH 7.4) and 150 mM NaCl at 4 °C to ensure complete removal of DTT and glycerol from the protein storage buffer, which could affect the heat exchange while they interact. ITC assays were performed using a Malvern MicroCal PEAQ-ITC calorimeter. Before the experiment, the cell and the syringe were thoroughly washed with water, followed by cell rinsing with a buffer. A control run was carried out to make sure that the buffer is not participating in heat change where the cell was filled with 300 μl of a buffer and concentrated CaPCNA or ScPCNA protein (200 μM) in the syringe. ITC was performed using various Polηs or UBZ peptide or UBZ mutant peptide in the sample cell and CaPCNA or ScPCNA or a mixture of CaPCNA+ WT UBZ peptide in the syringe. Twenty-five injections of 1.5 μl of protein from the syringe were given at intervals of 120 s with an initial delay of 120 s at 25 °C. The data were analyzed to determine the various kinetic parameters using a single-site binding model provided in the ITC analysis software package.

607-KTKKCSRCKLSVDDPVEANDYAIAMDLSN-635 [mutant peptide]
Binding to CaPCNA by ITC (in words) [1]: did not show any sign of binding

B1
dH [2]: -80 kcal/mol
stoichiometry N [2]: 0.355
stoichiometry N [3]: 3
Kd [4]: 7.15 µM
dH [4]: -22.1 kcal/mol
stoichiometry N [4]: 0.315

B2
Kd [5]: 19.8 µM
Kd [6]: 39 µM
Kd [7]: 15.6 µM

B3
dH [2]: -79.9 kcal/mol
stoichiometry N [2]: 0.316

B4
dH [2]: -24.2 kcal/mol
stoichiometry N [2]: 0.34
Kd [8]: 15.1 µM
dH [8]: -79.9 kcal/mol
stoichiometry N [8]: 0.31

B5: ScPolη: Saccharomyces cerevisiae DNA polymerase eta (protein)
chain: MSKFTWKELIQLGSPSKAYESSLACIAHIDMNAFFAQVEQMRCGLSKEDPVVCVQWNSIIAVSYAARKYGISRMDTIQEALKKCSNLIPIHTAVFKKGEDFWQYHDGCGSWVQDPAKQISVEDHKVSLEPYRRESRKALKIFKSACDLVERASIDEVFLDLGRICFNMLMFDNEYELTGDLKLKDALSNIREAFIGGNYDINSHLPLIPEKIKSLKFEGDVFNPEGRDLITDWDDVILALGSQVCKGIRDSIKDILGYTTSCGLSSTKNVCKLASNYKKPDAQTIVKNDCLLDFLDCGKFEITSFWTLGGVLGKELIDVLDLPHENSIKHIRETWPDNAGQLKEFLDAKVKQSDYDRSTSNIDPLKTADLAEKLFKLSRGRYGLPLSSRPVVKSMMSNKNLRGKSCNSIVDCISWLEVFCAELTSRIQDLEQEYNKIVIPRTVSISLKTKSYEVYRKSGPVAYKGINFQSHELLKVGIKFVTDLDIKGKNKSYYPLTKLSMTITNFDIIDLQKTVVDMFGNQVHTFKSSAGKEDEEKTTSSKADEKTPKLECCKYQVTFTDQKALQEHADYHLALKLSEGLNGAEESSKNLSFGEKRLLFSRKRPNSQHTATPQKKQVTSSKNILSFFTRKK
modifications: left off: GST, N-terminal, state not stated
notes: Saccharomyces cerevisiae DNA polymerase eta
Kd ([9]; 20 mM HEPES pH 7.4, 150 mM NaCl, syringe ScPCNA 200 μM, cell 10 μM ScPolη or 20 μM ubz peptide, single-site model, repeated twice): 15.1 µM
Stoichiometry ([9]; pH 7.4, ScPCNA 200 μM in syringe): 0.31
ΔG ([9]; pH 7.4, ScPCNA, unit not given): −6.58
ΔH ([9]; pH 7.4, ScPCNA, unit not given): −79.9
−TΔS ([9]; pH 7.4, ScPCNA, unit not given): 73.3
